From publication PMC5342420, “CD109 is identified as a potential nasopharyngeal carcinoma biomarker using aptamer selected by cell-SELEX”

T1: CD109 (endogenous, 5-8F cells) (UniProt Q6YHK3)
T1 sequence: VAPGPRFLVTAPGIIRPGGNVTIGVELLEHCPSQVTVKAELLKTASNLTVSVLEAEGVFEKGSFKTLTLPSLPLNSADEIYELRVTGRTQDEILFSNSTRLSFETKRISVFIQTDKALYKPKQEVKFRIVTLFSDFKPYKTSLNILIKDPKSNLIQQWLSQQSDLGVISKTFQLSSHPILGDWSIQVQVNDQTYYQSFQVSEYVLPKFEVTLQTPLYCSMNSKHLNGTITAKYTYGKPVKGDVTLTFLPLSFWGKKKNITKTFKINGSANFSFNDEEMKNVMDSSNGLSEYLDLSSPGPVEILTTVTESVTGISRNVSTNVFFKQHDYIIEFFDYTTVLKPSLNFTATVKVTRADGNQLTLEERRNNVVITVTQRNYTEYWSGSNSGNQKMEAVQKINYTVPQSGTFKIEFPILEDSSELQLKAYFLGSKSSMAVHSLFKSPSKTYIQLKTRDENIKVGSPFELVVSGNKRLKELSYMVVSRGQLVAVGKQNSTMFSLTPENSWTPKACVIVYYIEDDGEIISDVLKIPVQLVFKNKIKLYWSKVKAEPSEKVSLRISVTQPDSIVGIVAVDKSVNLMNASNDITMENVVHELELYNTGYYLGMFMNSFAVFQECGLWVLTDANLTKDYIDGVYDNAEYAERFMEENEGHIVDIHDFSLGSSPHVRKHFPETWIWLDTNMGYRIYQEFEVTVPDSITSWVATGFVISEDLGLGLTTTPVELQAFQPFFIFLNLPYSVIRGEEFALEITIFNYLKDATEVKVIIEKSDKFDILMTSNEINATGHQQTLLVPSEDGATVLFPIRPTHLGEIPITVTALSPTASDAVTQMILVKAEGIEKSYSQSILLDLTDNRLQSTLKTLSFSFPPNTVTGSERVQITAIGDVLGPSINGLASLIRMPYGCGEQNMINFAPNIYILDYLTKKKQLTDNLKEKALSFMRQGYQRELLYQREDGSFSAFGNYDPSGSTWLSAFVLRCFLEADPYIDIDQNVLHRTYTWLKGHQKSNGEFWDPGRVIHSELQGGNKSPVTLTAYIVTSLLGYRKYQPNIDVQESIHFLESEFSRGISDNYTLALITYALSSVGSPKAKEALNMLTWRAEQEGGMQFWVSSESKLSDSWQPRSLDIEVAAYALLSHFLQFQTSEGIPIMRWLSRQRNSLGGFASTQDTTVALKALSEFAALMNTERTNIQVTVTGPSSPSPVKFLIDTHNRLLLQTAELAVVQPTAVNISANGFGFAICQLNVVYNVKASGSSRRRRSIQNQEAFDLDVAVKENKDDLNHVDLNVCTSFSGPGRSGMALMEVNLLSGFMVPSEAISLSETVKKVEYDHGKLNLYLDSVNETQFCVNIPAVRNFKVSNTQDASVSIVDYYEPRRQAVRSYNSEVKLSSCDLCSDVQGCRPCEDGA

B1: S3 (FAM-labeled) (ssDNA)
DNA: ATCCAGAGTGACGCAGCATCTGAGAATAGTGGTTTGCTGTATGGTGGGCGTTGAAAGAGGGGTGGACACGGTGGCTTAGT

Key:
[1] = biological target: T1, CD109 (endogenous, 5-8F cells); assay: flow cytometry; settings: whole 5-8F cells, on ice, 10% FBS, library background subtracted, Cells: D-PBS (Ca/Mg-free) + 4.5 g/L glucose, 5 mM MgCl2, 0.1 mg/mL yeast tRNA, 1 mg/mL BSA, on ice 0.5 h, EMSA: binding buffer, 4 C, 5% native PAGE in …
[2] = biological target: CD109 (recombinant) (Homo sapiens, UniProt Q6YHK3 22-1420); assay: EMSA; 4 C; Cells: D-PBS (Ca/Mg-free) + 4.5 g/L glucose, 5 mM MgCl2, 0.1 mg/mL yeast tRNA, 1 mg/mL BSA, 10% FBS, on ice 0.5 h; EMSA: binding buffer, 4 C, 5% native PAGE in; settings: protein: commercial; label: FAM

Molecule	Kd [1] [nM]	binding result [2]
ATCCAGAGTGACGCAGCATCTGAGAATAGTGGTTTGCTGTATGGTGGGCGTTGAAAGAGGGGTGGACACGGTGGCTTAGT [S3 (FITC-labeled)]	11.9	–
B1	–	binds
